Test results as given in patent US20230183319A1.

Tests used:
Experiment in all cases: cell-based or functional assay
BMP10 = target: T1, BMP10 (UniProt O95393)
T1 sequence (looked up): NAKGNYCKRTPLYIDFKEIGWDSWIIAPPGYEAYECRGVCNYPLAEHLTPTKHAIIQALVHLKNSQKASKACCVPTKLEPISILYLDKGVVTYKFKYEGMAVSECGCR

GDF11 = target: T2, GDF11 (UniProt O95390)
T2 sequence (looked up): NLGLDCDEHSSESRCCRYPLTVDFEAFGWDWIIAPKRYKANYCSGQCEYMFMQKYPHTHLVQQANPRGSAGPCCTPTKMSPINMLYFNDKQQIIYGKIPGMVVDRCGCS

GDF8 = target: T3, GDF8 (UniProt O14793)
T3 sequence (looked up): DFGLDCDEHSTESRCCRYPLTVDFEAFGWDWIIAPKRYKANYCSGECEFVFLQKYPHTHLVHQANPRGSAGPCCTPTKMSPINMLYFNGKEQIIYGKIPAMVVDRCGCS

activin A = target: T4, activin A (UniProt P08476)
T4 sequence (looked up): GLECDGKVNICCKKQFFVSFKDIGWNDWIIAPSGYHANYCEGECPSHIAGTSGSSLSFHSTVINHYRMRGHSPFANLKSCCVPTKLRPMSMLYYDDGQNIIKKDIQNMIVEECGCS

activin B = target: T5, activin B (UniProt P09529)
T5 sequence (looked up): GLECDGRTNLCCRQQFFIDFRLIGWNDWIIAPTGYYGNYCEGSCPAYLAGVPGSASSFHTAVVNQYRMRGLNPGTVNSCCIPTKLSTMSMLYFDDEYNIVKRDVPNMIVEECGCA

BMP9 = target: T6, BMP9 (UniProt Q9UK05)
T6 sequence (looked up): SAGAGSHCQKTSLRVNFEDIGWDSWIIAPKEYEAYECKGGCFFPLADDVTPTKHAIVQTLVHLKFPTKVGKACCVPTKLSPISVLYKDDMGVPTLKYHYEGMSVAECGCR

Chain of ActRIIB-G1Fc (SEQ ID NO: 5) (Fc fusion) (chain): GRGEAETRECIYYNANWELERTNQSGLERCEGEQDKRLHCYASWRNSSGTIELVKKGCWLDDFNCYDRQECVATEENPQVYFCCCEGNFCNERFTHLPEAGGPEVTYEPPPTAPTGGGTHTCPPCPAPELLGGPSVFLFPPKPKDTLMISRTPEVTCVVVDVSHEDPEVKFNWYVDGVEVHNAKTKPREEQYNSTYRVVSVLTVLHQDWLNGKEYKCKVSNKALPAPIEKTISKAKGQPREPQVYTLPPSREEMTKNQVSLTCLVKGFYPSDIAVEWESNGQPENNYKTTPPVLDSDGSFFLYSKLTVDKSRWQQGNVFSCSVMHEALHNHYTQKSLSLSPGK

IC50 (ng/mL); A204 CAGA12 luciferase reporter (BMP9) [ng/mL]	IC50 (ng/mL); A204 CAGA12 luciferase reporter (GDF11) [ng/mL]	IC50 (ng/mL); A204 CAGA12 luciferase reporter (activin A) [ng/mL]	Substance	further results
–	–	–	ActRIIB(F82T)-G1Fc (Fc fusion)	IC50 (nM); A204 CAGA12 luciferase reporter (BMP10): 0.07 nM; IC50 (nM); A204 CAGA12 luciferase reporter (GDF11): 0.27 nM; IC50 (nM); A204 CAGA12 luciferase reporter (GDF8): 2.17 nM; IC50 (nM); A204 CAGA12 luciferase reporter (activin A): 0.1 nM; IC50 (nM); A204 CAGA12 luciferase reporter (activin B): 0.09 nM
40000	389	–	ActRIIB(F82W, N83A)-G1Fc (Fc fusion)	–
–	477	–	ActRIIB(L79K)-G1Fc (Fc fusion)	–
409	99	128	ActRIIB-Fc A24N (Fc fusion)	–
721	180	132	ActRIIB-Fc E50K (Fc fusion)	–
3000	638	756	ActRIIB-Fc E50P (Fc fusion)	–
359	71	198	ActRIIB-Fc E52A (Fc fusion)	–
10000	296	762	ActRIIB-Fc E52K (Fc fusion)	–
–	276	–	ActRIIB-Fc F82W (Fc fusion)	–
5500	365	396	ActRIIB-Fc K55D (Fc fusion)	–
777	318	206	ActRIIB-Fc K55R (Fc fusion)	–
165	45	–	ActRIIB-Fc K74R (Fc fusion)	–
–	234	–	ActRIIB-Fc L79R (Fc fusion)	–
1210	591	–	ActRIIB-Fc R40A (Fc fusion)	–
–	414	–	ActRIIB-Fc Y60K (Fc fusion)	–
–	544	–	ActRIIB-Fc Y60P (Fc fusion)	–
31	9	8	ActRIIB-G1Fc (SEQ ID NO: 5) (Fc fusion)	IC50 (nM); A204 CAGA12 luciferase reporter (BMP10): 0.036 nM; IC50 (nM); A204 CAGA12 luciferase reporter (BMP9): 1.82 nM; IC50 (nM); A204 CAGA12 luciferase reporter (GDF11): 0.12 nM; IC50 (nM); A204 CAGA12 luciferase reporter (GDF8): 0.95 nM; IC50 (nM); A204 CAGA12 luciferase reporter (activin A): 0.05 nM; IC50 (nM); A204 CAGA12 luciferase reporter (activin B): 0.067 nM
